# B1: Protein PTHB1 (Homo sapiens), Q3SYG4 (parent)
# chain: MSLFKARDWWSTILGDKEEFDQGCLCLANVDNSGNGQDKIIVGSFMGYLRIFSPHPAKTGDGAQAEDLLLEVDLRDPVLQVEVGKFVSGTEMLHLAVLHSRKLCVYSVSGTLGNVEHGNQCQMKLMYEHNLQRTACNMTYGSFGGVKGRDLICIQSMDGMLMVFEQESYAFGRFLPGFLLPGPLAYSSRTDSFLTVSSCQQVESYKYQVLAFATDADKRQETEQQKLGSGKRLVVDWTLNIGEQALDICIVSFNQSASSVFVLGERNFFCLKDNGQIRFMKKLDWSPSCFLPYCSVSEGTINTLIGNHNNMLHIYQDVTLKWATQLPHIPVAVRVGCLHDLKGVIVTLSDDGHLQCSYLGTDPSLFQAPNVQSRELNYDELDVEMKELQKIIKDVNKSQGVWPMTEREDDLNVSVVVSPNFDSVSQATDVEVGTDLVPSVTVKVTLQNRVILQKAKLSVYVQPPLELTCDQFTFEFMTPDLTRTVSFSVYLKRSYTPSELEGNAVVSYSRPTDRNPDGIPRVIQCKFRLPLKLICLPGQPSKTASHKITIDTNKSPVSLLSLFPGFASQSDDDQVNVMGFHFLGGARITVLASKTSQRYRIQSEQFEDLWLITNELILRLQEYFEKQGVKDFACSFSGSIPLQEYFELIDHHFELRINGEKLEELLSERAVQFRAIQRRLLARFKDKTPAPLQHLDTLLDGTYKQVIALADAVEENQGNLFQSFTRLKSATHLVILLIALWQKLSADQVAILEAAFLPLQEDTQELGWEETVDAAISHLLKTCLSKSSKEQALNLNSQLNIPKDTSQLKKHITLLCDRLSKGGRLCLSTDAAAPQTMVMPGGCTTIPESDLEERSVEQDSTELFTNHRHLTAETPRPEVSPLQGVSE
# partner: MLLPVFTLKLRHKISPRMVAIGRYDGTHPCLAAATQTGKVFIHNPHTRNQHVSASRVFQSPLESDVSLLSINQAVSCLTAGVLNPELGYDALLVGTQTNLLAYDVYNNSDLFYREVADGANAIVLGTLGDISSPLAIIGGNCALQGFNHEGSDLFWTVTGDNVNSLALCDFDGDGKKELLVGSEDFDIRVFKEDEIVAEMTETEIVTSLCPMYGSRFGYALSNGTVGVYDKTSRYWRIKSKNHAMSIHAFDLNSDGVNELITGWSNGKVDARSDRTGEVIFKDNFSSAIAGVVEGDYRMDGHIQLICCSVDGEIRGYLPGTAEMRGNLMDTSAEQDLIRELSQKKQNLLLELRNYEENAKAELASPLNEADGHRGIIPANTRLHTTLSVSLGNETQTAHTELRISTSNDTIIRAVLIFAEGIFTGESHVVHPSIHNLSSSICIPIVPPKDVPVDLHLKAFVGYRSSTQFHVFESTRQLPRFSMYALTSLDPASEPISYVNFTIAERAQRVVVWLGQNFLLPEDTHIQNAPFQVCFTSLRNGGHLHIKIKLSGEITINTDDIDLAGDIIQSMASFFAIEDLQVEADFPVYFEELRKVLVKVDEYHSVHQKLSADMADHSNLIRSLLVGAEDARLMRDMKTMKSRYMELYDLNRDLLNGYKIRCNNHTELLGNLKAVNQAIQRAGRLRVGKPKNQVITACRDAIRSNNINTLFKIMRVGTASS
# Variants of: B1
# Conditions: with bbs2_human BBS2, Q9BXC9
row,Variant,effect of a mutation on the interaction
1,T725E,with no effect
2,V437E,with no effect
3,V437A,with no effect
4,S555K,with no effect
5,S423K,with no effect
6,L467K,with no effect
7,D859E,with no effect
8,L665A,with no effect
9,E878K,with no effect
10,S561A,with no effect
11,F527E,with no effect
12,S603A,with no effect
13,K728A,with no effect
14,K454A,with no effect
15,I548E,with no effect
16,S439E,with no effect
17,R656E,with no effect
18,P537K,with no effect
19,P537A,with no effect
20,V879K,with no effect
21,R449E,with no effect
22,R449K,with no effect
23,V416A,with no effect

row,Variant,effect of a mutation on the interaction
1,E663K,with no effect
2,T405K,with no effect
3,Q462T,disrupting interaction strength
4,Y495A,with no effect
5,V506K,with no effect
6,L744F,disrupting interaction strength
7,E408K,with no effect
8,A746K,with no effect
9,V430A,with no effect
10,F721K,with no effect
11,Y490E,with no effect
12,S729K,with no effect
13,A586K,with no effect
14,D517A,with no effect
15,I735A,with no effect
16,G701K,with no effect
17,C843K,with no effect
18,C843A,with no effect
19,T805K,with no effect
20,T805E,with no effect
21,Q722T,disrupting interaction strength
22,R678K,with no effect
23,K687A,with no effect

row,Variant,effect of a mutation on the interaction
1,A774E,with no effect
2,H732A,with no effect
3,E753K,with no effect
4,G585E,with no effect
5,L662E,with no effect
6,F563A,with no effect
7,P847A,with no effect
8,L825K,with no effect
9,S593E,with no effect
10,N800A,with no effect
11,H811A,with no effect
12,L709A,with no effect
13,D773A,with no effect
14,Q643K,with no effect
15,S785A,disrupting interaction strength
16,L882A,with no effect
17,D711E,with no effect
18,P802E,with no effect
19,P802K,with no effect
20,E852K,with no effect
21,V489A,with no effect
22,R514E,with no effect
23,D631E,with no effect

row,Variant,effect of a mutation on the interaction
1,D631K,with no effect
2,A690E,disrupting interaction strength
3,L819E,with no effect
4,Q574K,with no effect
5,P877E,with no effect
6,P758A,with no effect
7,A775T,disrupting interaction strength
8,L446A,with no effect
9,L446K,with no effect
10,Q539A,with no effect
11,Q539K,with no effect
12,L609A,with no effect
13,K626E,with no effect
14,D429K,with no effect
15,D513K,with no effect
16,Y599A,with no effect
17,F606A,with no effect
18,I649K,with no effect
19,I738E,with no effect
20,R407A,with no effect
21,L752K,with no effect
22,A544E,with no effect
